# Laboratory results reported in patent publication US12090209B2, “Twin base linkers for virus inactivation” (priority 2020, dated 2024).
# Where no end group is shown, it is not given here.
# Target: heat-inactivated SARS-CoV-2 spike (S) protein (Severe acute respiratory syndrome coronavirus 2, UniProt P0DTC2)
substance,measurement,value
"TBL-SADE: TBS monomer of Formula 1 wherein L=SADE (SEQ ID NO:2) peptide, no further targeting moieties (also: TBS monomer of Formula 1, L = SADE, functionalized)",binding to SARS-CoV-2 spike (S) protein,confirmed binding
